In patent US20250136720A1 (Boehringer Ingelheim, published 2025):
Numbering of substitutions follows the chain as printed. Names and notes keep the numbering of the source.

B1: CD137 #B31 (antibody, human IgG1, V domains shown)
VH: QVQLQQSGPQLIRPGASVKISCKASGYSFTGYWIHWVKQRPGQGLEWIGMIDPSDSETRLNQKFKDKATLTVDKSSTTAYMQLSSPTSEDSAVFYCARYRNYGYDGFAHWGQGTLVTVSA
VL: DIVMTQSPSSLTVTAGEKVTMSCKSSQSLLNSGNEKNYLAWYQQKPGQPPKLLIYWASTRESGVPDRFTGSGSGTDFTLTISSVQTEDLAVYHCQNDYSLPLTFGAGTKLELK
notes: human IgG1 KO (L234A/L235A)/kappa chimeric IgG
B2: CD137 #A3 (antibody, human IgG1, V domains shown)
VH: DVQLQESGPGLVKPSQSLSLTCTVTGYSITSDYGWNWIRQFPGNKVEWMGYISYSGSTSYNPSLKSRISITRDTSKNQFFLQLKSVTTEDTATYYCARSDPYYGISWFAYWGQGPLVTVSA
VL: DIQMTQTTSSLSASLGDRVTISCRASQDISNFLNWYQQKPDGTVKLLIYYTSRLHSGVPSRFSGSGSGTDYSLTISNLEQEDIATYFCQQSHTLPWTFGGGTKLEIK
notes: as for B1
B3: CD137 #A25 (antibody, human IgG1, V domains shown)
VH: DVQLVESGGGLVQPGGSRKLSCAASGFSFSSFGMHWVRQAPEKGLEWVAYISSGSSTIYYADTVKGRFTISRDNPKNTLFLQMTSLRSEDTAMYYCVRDWTDYWGQGTTLTVST
VL: QIVLTQSPAIMSASLGEEITLTCSATSSVSYMHWSQQKSGTSPKLLIYTTSNLASGVPSRFSGSGSGTFYSLTISSVEAEDAADYYCHQWTTYPWTFGGGTKLEIK
notes: as for B1
B4: CD137 #A16 (antibody, human IgG1, V domains shown)
VH: QVQLQQPGAELVKPGASVKLSCKASGYTFTNFWINWVKQRPGQALEWIGNIYPGNDNTNYNGNFKTKATLTVDRSSSTAYMHLSSLTSKDSAVYYCARGQLGLDYWGQGTTLTVSS
VL: DILLTQSPAILSVSPGERVSFSCRASQNIGTTIHWYHQRTNGSPRLLIKFASESISGIPSRFSGSGSGTDFTLSINSVESEDFADYYCQQSNSWPFTFGSGTKLEIK
notes: as for B1
B5: CD137 #A17 (antibody, human IgG1, V domains shown)
VH: B4 VH with T66S
VL: B4 VL with T32A
notes: as for B1
B6: CD137 #A26 (antibody, human IgG1, V domains shown)
VH: EVQLQESGPSLVKPSQTLSLTCSVTGDSITSGYWNWNRKFPGNKFEYMGYISYSDSAYYNPSLKSRISITRDTSKNQYYLQLNSVTTEDTATYYCTRWGIPFAFWGQGTLVTVSA
VL: DIKMTQSPSSMYASLGERVTITCKASQDIDSYLYWFQQKPGKSPETLIYHANRLVDGVPSRFSGSGSGQDYSLTISSLEYEDMGIYYCLQYDEFPYTFGGGTKLEIK
notes: as for B1
B7: CD137 #A27 (antibody, human IgG1, V domains shown)
VH: QVQLQQSGAELTRPGASVKLSCKASGYTFTNYWIQWIKQRPGQGLEWIGTIYPENGDTRYTQKFKGKATLTADKSSSTAYMQLSSLASEDSAVYYCARGLLEGAHYWGQGTTLTVSS
VL: DILLTQSPAILSVSPGERVSFSCRASQSIGASIHWYQQRTNGSPRLLIKFSSESISGIPSRFSGSGSGTDFTLTINSVESEDIADYYCQQTNSWPTAFGGGTKLEMK
notes: as for B1
B8: CD137 #A39 (antibody, human IgG1, V domains shown)
VH: QVQLQQSGAELMKPGSSVKLSCKAPGYKFTDYWIEWVKQRPGHGLDWIGNILPGTINTNSNENFKGKATFTADTSSNTAYMQLSSLTSEDSAVYYCARRSLEYYFDYWGQGTTLTVSS
VL: DIVVTQSPASLAVSLGQRATISCRASQSVSTSRYSYMHWYQQKPGQPPRLLINYASNLESGVPARFSGSGSGTDFTLNIHPVEEEDTATYYCQHTWEIPWTFGGGTKLEIK
notes: as for B1
B9: CD137 #B1 (antibody, human IgG1, V domains shown)
VH: B4 VH
VL: B4 VL
notes: as for B1
B10: CD137 #B2 (antibody, human IgG1, V domains shown)
VH: B4 VH with A44G, D56T, N57G, G62E, N63R, R74I, H82R, K89E
VL: B4 VL with N28I, H34Q, H37Q, F50Y, I55L, S77N, F83I, N92H
notes: as for B1
B11: CD137 #B7 (antibody, human IgG1, V domains shown)
VH: EVQLQESGPSLVKPSQTLSLTCSVTGDSITSGYWNWIRKFPGNKLEFMGYITYSGSTYYNPSLKSRISITRDTSRNQFYLQVNSVTTEDTATYFCTRYYYYGSTYYAMDYWGQGTSVTVSS
VL: NIVLTQSPASLAVSLGQRATISCRVSESVDSYGNSFMHWFQQKPGQSPKLLIYLASNLESGVPARFSGSGSRTDFTLTIDPVEADDAATYYCQQNIEDPPTFGGGTKLEIK
notes: as for B1
B12: CD137 #B13 (antibody, human IgG1, V domains shown)
VH: B4 VH
VL: B4 VL
notes: as for B1
B13: CD137 #A49 (antibody, human IgG1, V domains shown)
VH: QVQLQESGPGLVKPSETLSLTCTVSGGSISSYYWSWIRQPPGKGLEWIGYIYYSGSTNYNPSLKSRVTISVDTSKNQFSLKLSSVTAADTAVYYCARDQSGGGSFQHWGQGTLVTVSS
VL: EIVMTQSPLSLPVTPGEPASISCRSSQSLLYSNGYNHLDWYLQKPGQSPQLLIYLGSNRASGVPDRFSGSGSGTDFTLKISRVEAEDVGVYYCMQALQTPPTFGQGTKLEIK
notes: human IgG1 KO (L234A/L235A)/kappa IgG; also called CD137 #7; A49 Parent
B14: CD137 #B20 (antibody, human IgG1, V domains shown)
VH: EVKLVESEGGLVQPGSSMKLSCTASGFTFSDFYMAWVRQVPEKGLEWVANINYDGSSTYYLDSLKSRFIISRDNARNILYLQMSSLKSEDTATYYCAREGDEGWYFDVWGAGTTVTVSS
VL: DIVMTQSHKFMSTSVGDRVSITCKASQDVSTAVAWYQQKPGQSPKLLIYSASYRYTGVPDRFTGSGSGTDFTFTISSVQAEDLAVYYCQQHYSNPWTFGGGTKLEIK
notes: as for B1
B15: CD137 #B21 (antibody, human IgG1, V domains shown)
VH: B14 VH
VL: B14 VL
notes: human IgG1 KO (L234A/L235A)/kappa chimeric IgG; also called CD137 #1; B21 parent
B16: CD137 #A42 (antibody, V domains shown)
VH: QVQLQQSGPGLVKPSQTLSLTCAISGDSVSSNSAAWNWIRQSPSRGLEWLGRTYYRSNWYNDYAVSVESRITIKPDTSKNQFSLQLNSVTPEDTAVYYCARMDSGTYLDAFDIWGQGTMVTVSS
VL: EIVMTQSPATLSVSPGERATLSCRASQSVGRNLAWYQQKPGQTPRLLIYGASTRATGIPAIFSGSGSGTEFTLTISSLQSEDFAVYYCQQYNYWPPFTFAQGTKLEIK
notes: as for B1
B17: CD137 #B4 (antibody, human IgG1, V domains shown)
VH: DVQLQESGPGLVKPSQSLSLTCTVTGYSITSDYAWNWIRQFPGNRLEWMGYISYSGSTSYNPSLKSRISITRDTSKNQFFLQLNSVTTEDTATYFCARWGYVLDYWGQGTSVTVSS
VL: DIVMTQSHKFMSTSEGDRVSITCKASQDVSTAVAWYQQKPGQSPKLLIYWASTRHTGVPDRFRGSGSGTDYTLTISSVQAEDLALYFCQQHYFTPYTFGGGTKLEIK
notes: as for B1

These binders were tested against T1, Human CD137 on Jurkat cells (human, UniProt Q07011 24-255) (assay: flow cytometry, Jurkat cells;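 further: binding of antibody-containing supernatants to NF-kB-Luc2/4-1BB Jurkat cells, detected by flow cytometry with a PE-labelled anti-human IgG-Fc secondary antibody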).
T1 construct: whole, on cells; also called full-length human CD137-expressing Jurkat cell line; NF-kB-Luc2/4-1BB Jurkat
Description: Briefly, HTP supernatants containing recombinant IgG1 (KO) antibodies, were assayed by flow cytometry for binding to the NF-kB-Luc2/4-1BB Jurkat cell line. […] The cells were washed x3 with staining buffer. A Goat F(ab′)2 anti-human IgG-Fc PE secondary antibody was added to the cells and the plate was incubated for 30 min at 4° C. The cells were wash ×3 with staining buffer.

Binding result, binds:
B1, B2, B3, B4, B5, B6, B7, B8, B9, B10, B11, B12, B13, B14, B15, B16, B17
